Laboratory results from publication PMC10324447.

How the values were obtained:
[1] = target: VRC01 IgG1 bound to its antigen (not stated | HIV-1, strain BaL); assay: ITC
VRC01 IgG1 = assay: ITC

- Kd [1]: 547 nM
- Kd (VRC01 IgG1): 150 nM
Substance: human FcγRIIIa-V158, soluble extracellular domain (receptor)
